In publication PMC6424611 (Journal of molecular biology, 2019):
Where no end group is shown, it is not given here. [ ]: non-standard residue; d: D form. The star is where a group is joined. Biotin = O=C1N[C@H]2[C@H](CS[C@H]2CCCCC(=O)*)N1; TTDS = NCCCOCCOCCOCCCNC(=O)CCC(=O)*; pS = N[C@@H](COP(=O)(O)O)C(=O)O

T1: MBP-fused PDZ domain of MAST1 (human, UniProt Q9Y2H9 967-1055)
T1 sequence (looked up): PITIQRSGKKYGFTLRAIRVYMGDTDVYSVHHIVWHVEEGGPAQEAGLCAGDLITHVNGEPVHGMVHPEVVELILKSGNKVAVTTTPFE

T2: MBP-fused PDZ domain 3 of PDZD7 (human, UniProt Q9H5P4 862-934)
T2 sequence (looked up): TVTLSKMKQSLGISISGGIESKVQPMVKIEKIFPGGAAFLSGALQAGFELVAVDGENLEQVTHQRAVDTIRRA

T3: MBP-fused PDZ domain of MAST2 (human, UniProt Q6P0Q8 1104-1192)
T3 sequence (looked up): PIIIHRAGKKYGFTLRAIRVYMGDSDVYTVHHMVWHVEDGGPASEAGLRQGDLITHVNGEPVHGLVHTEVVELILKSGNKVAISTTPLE

T4: MBP-fused PDZ domain of SNTB1 (human, UniProt Q13884 112-195)
T4 sequence (looked up): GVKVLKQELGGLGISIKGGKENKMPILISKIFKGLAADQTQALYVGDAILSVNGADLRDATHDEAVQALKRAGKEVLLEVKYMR

T5: MBP-fused PDZ domain of SNTG2 (human, UniProt Q9NY99 73-156)
T5 sequence (looked up): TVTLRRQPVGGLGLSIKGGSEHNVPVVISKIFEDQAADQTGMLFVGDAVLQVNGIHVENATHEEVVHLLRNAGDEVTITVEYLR

B1: MBP-fused PDZ domain 1 of PDZRN4 (domain or fragment, human, UniProt Q6ZMN7 224-314, looked up)
chain: TIVLERENDTLGFNIIGGRPNQNNQEGTSTEGIYVSKILENGPADRADGLEIHDKIMEVNGKDLSKATHEEAVEAFRNAKEPIVVQVLRRT
B2: PDZ domain 2 of MAGI3 (domain or fragment, human, UniProt Q5TCQ9 410-492, looked up)
chain: RASLKKSTMGFGFTIIGGDRPDEFLQVKNVLKDGPAAQDGKIAPGDVIVDINGNCVLGHTHADVVQMFQLVPVNQYVNLTLCR
B3: biotinylated RSK1 725-735 peptide, phosphorylated at Ser732 (position -3) (peptide, UniProt Q15418 725-735, looked up)
peptide: {Biotin-TTDS}-RRVRKLP[pS]TTL
B4: biotinylated RSK1 725-735 peptide, unphosphorylated (peptide, UniProt Q15418 725-735, looked up)
peptide: {Biotin-TTDS}-RRVRKLPSTTL
B5: MBP-fused PDZ domain 1 of PARD3B (domain or fragment, human, UniProt Q8TEW8 201-289, looked up)
chain: TRTVEISGEGGPLGIHVVPFFSSLSGRILGLFIRGIEDNSRSKREGLFHENECIVKINNVDLVDKTFAQAQDVFRQAMKSPSVLLHVLP

Tests used:
[1] = target: B4; experiment: holdup assay
[2] = target: B3; experiment: holdup assay
[3] = target: B5; experiment: fluorescence polarisation
[4] = target: MBP-fused PDZ domain 2 of GRID2IP (human, UniProt A4D2P6 279-356); experiment: fluorescence polarisation
[5] = target: T1, MBP-fused PDZ domain of MAST1; experiment: fluorescence polarisation
[6] = target: T2, MBP-fused PDZ domain 3 of PDZD7; experiment: fluorescence polarisation
[7] = target: T3, MBP-fused PDZ domain of MAST2; experiment: fluorescence polarisation
[8] = target: MBP-fused PDZ domain of HTRA1 (human, UniProt Q92743 365-467); experiment: fluorescence polarisation
[9] = target: MBP-fused PDZ domain of SNX27 (human, UniProt Q96L92 43-136); experiment: fluorescence polarisation
[10] = target: T4, MBP-fused PDZ domain of SNTB1; experiment: fluorescence polarisation
[11] = target: T5, MBP-fused PDZ domain of SNTG2; experiment: fluorescence polarisation
[12] = target: B5; experiment: holdup assay
PDZ domain 2 of MAGI3 = target: B2; experiment: holdup assay
[13] = target: B1; experiment: holdup assay
[14] = target: B5; experiment: SPR
[15] = target: B1; experiment: SPR

MBP-fused PDZ domain of HTRA1, sequence (Q92743 365-467): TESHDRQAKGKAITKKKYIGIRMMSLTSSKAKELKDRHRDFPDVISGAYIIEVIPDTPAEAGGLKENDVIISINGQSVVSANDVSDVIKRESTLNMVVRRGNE
MBP-fused PDZ domain 2 of GRID2IP, sequence (A4D2P6 279-356): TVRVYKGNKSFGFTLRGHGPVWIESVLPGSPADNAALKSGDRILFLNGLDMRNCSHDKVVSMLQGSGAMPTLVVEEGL

BI [1] | BI [2] | Kd [12] [µM] | Kd (PDZ domain 2 of MAGI3) [µM] | Kd [13] [µM] | Kd [14] [µM] | Kd [15] [µM] | Binder | further results
0.51 ± 0.02 | 0.54 ± 0.03 |  |  |  |  |  | B1 | 
0.28 ± 0.03 | 0.28 ± 0.06 |  |  |  |  |  | B2 | 
 |  |  |  |  |  |  | RSK1 683-735 peptide, phosphorylated (peptide, UniProt Q15418 683-735, looked up, also: monophosphorylated, site not given here) peptide: QSQLSHQDLQLVKGAMAATYSALNSSKPTPQLKPIESSILAQRRVRKLPSTTL | Kd [3]: 31 ± 3.5 µM; Kd [4]: 85 ± 11 µM; Kd [5]: 92 ± 12 µM; Kd [6]: 46 ± 7 µM; Kd [7]: 48 ± 84 µM; Kd [8]: 33 ± 2 µM; Kd [9]: 32 ± 5 µM; Kd [10]: 4.5 ± 0.3 µM; Kd [11]: 4.8 ± 1.7 µM
 |  | 35.1 | 40.8 | 12.6 | 6.1 ± 0.4 | 7.1 ± 0.9 | B3 | 
 |  | 13.8 | 40.8 | 14.4 | 4 ± 0.3 | 0.97 ± 0.18 | B4 | 
0.52 ± 0.05 | 0.31 ± 0.02 |  |  |  |  |  | B5 | 
